Test results taken from US20220105163A1 (UNITED BIOMEDICAL, published 2022).

Legend:
[1] = target: T1, Recombinant His-tagged human IL-6Rα (human, UniProt P08887 20-365, limits assumed); assay: competition ELISA: inhibition of IL-6 binding to coated IL-6Rα (cis-binding)
T1 construct: Bought from GenScript; also called sIL-6Rα; not shown: His tag
T1 sequence (looked up): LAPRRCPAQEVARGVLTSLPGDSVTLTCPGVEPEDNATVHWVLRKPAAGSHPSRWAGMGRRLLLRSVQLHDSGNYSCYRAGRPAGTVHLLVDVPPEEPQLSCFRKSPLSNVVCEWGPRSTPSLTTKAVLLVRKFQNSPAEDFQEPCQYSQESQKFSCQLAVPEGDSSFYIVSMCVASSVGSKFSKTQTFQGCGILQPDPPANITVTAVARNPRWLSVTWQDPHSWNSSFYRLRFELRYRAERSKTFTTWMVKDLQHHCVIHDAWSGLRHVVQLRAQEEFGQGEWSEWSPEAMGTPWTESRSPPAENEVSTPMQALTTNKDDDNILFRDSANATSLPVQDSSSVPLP

[2] = target: T1, Recombinant His-tagged human IL-6Rα; assay: competition ELISA: inhibition of IL-6/IL-6Rα complex binding to coated gp130-Fc (trans-binding)

IC50 [1]: 0.935 µg/mL | IC50 [2]: 0.1 µg/mL
B1: Tocilizumab (antibody, V domains shown)
VH: QVQLQESGPGLVRPSQTLSLTCTVSGYSITSDHAWSWVRQPPGRGLEWIGYISYSGITTYNPSLKSRVTMLRDTSKNQFSLRLSSVTAADTAVYYCARSLARTTAMDYWGQGSLVTVSS
VL: DIQMTQSPSSLSASVGDRVTITCRASQDISSYLNWYQQKPGKAPKLLIYYTSRLHSGVPSRFSGSGSGTDFTFTISSLQPEDIATYYCQQGNTLPYTFGQGTKVEIKR
